Assay [1] deals with Full length ALPH1 (amino acid 1-734), recombinant (T. brucei). Briefly: SEC-MALS; 100 µl injected at 5 mg/ml on Superdex 200 Increase 10/300 GL, 15°C, 0.4 ml/min, PBS buffer.
The target of assay [2] is ALPH1ΔN (amino acids 222-734), recombinant (T. brucei). The description is as above.

Broadly, the stoichiometry N is a count of units in the complex or per binding partner.

On to “Full length ALPH1 (amino acid 1-734), recombinant (enzyme)”, for which the stoichiometry N in assay [1] turned out to be 2.
Regarding “ALPH1ΔN (amino acids 222-734), recombinant (domain or fragment)”, the stoichiometry N in assay [2] was determined as 2.

Values taken from PMC10415143.
